Assay results reported in patent publication US20170100354A1.

Target: H4 tail (residues 1-30) of the acetyl reporter protein (H4ac indicator)
Assay: cell-based or functional assay

## TATA binding protein (TBP)-associated factor II (TAFII) bromodomain of the H4ac indicator
  % of cells discriminated from auto fluorescence (FACS), H4ac indicator, 1 µM SAHA: 5%
  % of cells discriminated from auto fluorescence (FACS), H4ac indicator, 2.5 µM SAHA: 20%
  % of cells discriminated from auto fluorescence (FACS), H4ac indicator, 7.5 µM SAHA: 40%
  % of cells discriminated from auto fluorescence (FACS), H4ac indicator, 10 µM SAHA: 45%
